Measurements: patent US20050084449A1 (CELLDEX THERAPEUTICS, published 2005)

T1: TIM-1 antigen, cell membrane-bound (on ACHN, CAKI-2, CAKI-1 renal cancer cells and polarized/activated human … (human, UniProt Q96D42 21-364))
T1 construct: whole, on cells; Endogenous protein on cells; also called HAVcr-1; KIM-1
T1 sequence (looked up): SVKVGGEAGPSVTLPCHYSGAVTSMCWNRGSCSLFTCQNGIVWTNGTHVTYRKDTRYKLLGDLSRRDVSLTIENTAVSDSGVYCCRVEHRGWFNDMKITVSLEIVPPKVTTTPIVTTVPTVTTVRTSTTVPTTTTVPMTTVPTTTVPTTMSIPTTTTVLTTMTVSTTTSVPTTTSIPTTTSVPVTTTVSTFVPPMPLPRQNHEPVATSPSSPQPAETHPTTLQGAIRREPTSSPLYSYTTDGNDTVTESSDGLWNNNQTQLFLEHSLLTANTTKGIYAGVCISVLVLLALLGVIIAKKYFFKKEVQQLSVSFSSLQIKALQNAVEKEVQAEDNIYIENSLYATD

T2: synthetic peptide PMPLARQNHE (SEQ ID NO:99)
T2 peptide: PMPLARQNHE

T3: synthetic peptide PMPLPRQAHE (SEQ ID NO:102)
T3 peptide: PMPLPRQAHE

T4: TIM-1 peptide D) PMPLPRQN (human)
T4 peptide: PMPLPRQN

T5: TIM-1 peptide E) PMPLPR (human)
T5 peptide: PMPLPR

T6: TIM-1 peptide H) QNHEPVAT (human)
T6 peptide: QNHEPVAT

T7: TIM-1 peptide I) HEPVAT (human)
T7 peptide: HEPVAT

T8: TIM-1 peptide G) PRQNHEPVAT (human)
T8 peptide: PRQNHEPVAT


Legend:
[1] = target: T1, TIM-1 antigen, cell membrane-bound (on …); assay: FACS on CAKI-2 cells, normalized to isotype control pK16
[2] = target: T1, TIM-1 antigen, cell membrane-bound (on …); assay: FACS on ACHN cells, normalized to isotype control pK16
[3] = target: T1, TIM-1 antigen, cell membrane-bound (on …); assay: FACS on polarized human CD4+ Th2 cells, 10 ug/mL mAb
Protocol: Mononuclear cells were isolated from human blood diluted 1:1 in PBS, by spinning over Ficoll for 20 minutes. […] 20 μL of CD4 Miltenyi beads were added per 107 cells and incubated for 15 minutes on ice. Cells were washed with a 10-fold excess volume of Miltenyi buffer. A positive selection column (type VS+) (Miltenyi Biotec Inc., Auburn, Calif.) was washed with 3 mL of Miltenyi buffer. The pelleted cells were re-suspended at 10^8 cells per mL of Miltenyi buffer and applied to the washed VS column. The column was then washed three times with 3 mL of Miltenyi buffer. Following this, the VS column was removed from the magnetic field and CD4+ cells were eluted from the column with 5 mL of Miltenyi buffer. […] Cells were spun down and supernatant removed. Cells were blocked with 20% goat serum in FSB for 30 minutes on ice. Cells were washed as above and incubated with 10 μg/mL of primary human anti-TIM-1 mAb or control PK16.3 mAb in FSB (200 μL) for 45 minutes on ice followed by washing. Secondary goat anti-human PE conjugated antibody was added at 1:50 dilution for 45 minutes on ice in the dark, washed, resuspended in 500 μL of PBS containing 1% formaldehyde and kept at 4° C. until flow cytometry analysis was performed.
Data is reported as the geometric mean of the fluorescence intensity.

[4] = target: T2, synthetic peptide PMPLARQNHE (SEQ ID …); assay: peptide ELISA, alanine scan
[5] = target: T3, synthetic peptide PMPLPRQAHE (SEQ ID …); assay: peptide ELISA, alanine scan
[6] = target: T4, TIM-1 peptide D) PMPLPRQN; assay: peptide ELISA
Description: (§1) Assay plates were coated with the TIM-1 fragment peptides, using irrelevant peptide or no peptide as controls. […] Human antibody not specific to TIM-1, an isotype control antibody or no antibody served as controls.

TIM-1 peptide E) PMPLPR = target: T5, TIM-1 peptide E) PMPLPR; assay: peptide ELISA
Description: as §1

[7] = target: T6, TIM-1 peptide H) QNHEPVAT; assay: peptide ELISA
Description: as §1

TIM-1 peptide I) HEPVAT = target: T7, TIM-1 peptide I) HEPVAT; assay: peptide ELISA
Description: as §1

[8] = target: T8, TIM-1 peptide G) PRQNHEPVAT; assay: peptide ELISA
Description: as §1

Geo Mean Ratio (relative to negative control) [1] | Geo Mean Ratio (relative to negative control) [2] | Geometric mean of fluorescence intensity [3] | binding result [4] | binding result [5] | binding result [6] | binding result (TIM-1 peptide E) PMPLPR) | binding result [7] | binding result (TIM-1 peptide I) HEPVAT) | binding result [8] | Binder
7.7 ratio | 15.2 ratio | 22 |  |  |  |  |  |  |  | anti-TIM-1 mAb 2.59 (antibody, human IgG4, V domains shown, Biotinylated for IHC) VH: QSGPRLVKPSQTLSLTCTVSGGSISSDGYYWSWIRQHPGKGLEWIGYIYYSGSTFYNPSLKSRVAISVDTSKNQFSLKLSSVTAADTAVYYCARESPHSSNWYSGFDCWGQGTLVTVSS VL: TQSPDFQSVTPKEKVTITCRASQSIGSRLHWYQQKPDQSPKLLIKYASQSFSGVPSRFSGSGSGTDFTLTINSLEAEDAATYYCHQSSNLPFTFGPGTKVDIKR
 | 17.9 ratio | 22.3 |  |  |  |  |  |  |  | anti-TIM-1 mAb 1.29 (antibody, human IgG2, V domains shown) VH: QVQLQESGPGLVKPSETLSLTCTVSGGSVSSGGYYWSWIRQPPGKGLEWIGFIYYTGSTNYNPSLKSRVSISVDTSKNQFSLKLSSVTAADAAVYYCARDYDWSFHFDYWGQGTLVTVSS VL: DIQMTQSPSSLSASIGDRVTITCRASQGIRNDLGWYQQKPGKAPKRLIYAASSLQSGVPSRFSGSGSGTEFTLTISSLQPEDFATYYCLQHNSYPLTFGGGTKVEIKR
 | 7.9 ratio |  |  |  |  |  |  |  |  | anti-TIM-1 mAb 2.16 (antibody, V domains shown, also called 2.16.1 (subclone)) VH: EQSGGGVVKPGGSLRLSCAASGFTFSNAWMTWVRQAPGKGLEWVGRIKRRTDGGTTDYAAPVKGRFTISRDDSKNTLYLQMNNLKNEDTAVYYCTSVDNDVDYWGQGTLVTVSS VL: not shown
8.8 ratio | 19.4 ratio | 27.8 | no binding | no binding | no binding | no binding | no binding | no binding | no binding | anti-TIM-1 mAb 2.70 (antibody, V domains shown, Subclone 2.70.2 is treated as the same antibody because its printed variable regions are identical; also called 2.70.2 (subclone); TIM-1 2.70.2) VH: QVQLVESGGGVVQPGRSLRLSCAASGFIFSRYGMHWVRQAPGKGLKWVAVIWYDGSNKLYADSVKGRFTISRDNSKNTLYLQMNSLRAEDTAVYYCARDYYDNSRHHWGFDYWGQGTLVTVSS VL: DIVMTQTPLSLPVTPGEPASISCRSSRSLLDSDDGNTYLDWYLQKPGQSPQLLIYTLSYRASGVPDRFSGSGSGTDFTLKISRVEAEDVGVYYCMQRVEFPITFGQGTRLEIKR
